Results from US20180016313A1 (MEDPACTO, published 2018).

Assays:
[1] = biological target: T1, mouse LRP6 (mLRP6) protein (Cat. No. 2960-LR-025, R&D, USA) (mouse, UniProt O88572 20-1370, limits assumed); assay: ELISA, 100 ng mLRP6 coated, DKK2 protein diluted serially from 100 nM, KD calculated from absorbance at 490 nm
T1 construct: Coated on the ELISA plate
T1 sequence (looked up): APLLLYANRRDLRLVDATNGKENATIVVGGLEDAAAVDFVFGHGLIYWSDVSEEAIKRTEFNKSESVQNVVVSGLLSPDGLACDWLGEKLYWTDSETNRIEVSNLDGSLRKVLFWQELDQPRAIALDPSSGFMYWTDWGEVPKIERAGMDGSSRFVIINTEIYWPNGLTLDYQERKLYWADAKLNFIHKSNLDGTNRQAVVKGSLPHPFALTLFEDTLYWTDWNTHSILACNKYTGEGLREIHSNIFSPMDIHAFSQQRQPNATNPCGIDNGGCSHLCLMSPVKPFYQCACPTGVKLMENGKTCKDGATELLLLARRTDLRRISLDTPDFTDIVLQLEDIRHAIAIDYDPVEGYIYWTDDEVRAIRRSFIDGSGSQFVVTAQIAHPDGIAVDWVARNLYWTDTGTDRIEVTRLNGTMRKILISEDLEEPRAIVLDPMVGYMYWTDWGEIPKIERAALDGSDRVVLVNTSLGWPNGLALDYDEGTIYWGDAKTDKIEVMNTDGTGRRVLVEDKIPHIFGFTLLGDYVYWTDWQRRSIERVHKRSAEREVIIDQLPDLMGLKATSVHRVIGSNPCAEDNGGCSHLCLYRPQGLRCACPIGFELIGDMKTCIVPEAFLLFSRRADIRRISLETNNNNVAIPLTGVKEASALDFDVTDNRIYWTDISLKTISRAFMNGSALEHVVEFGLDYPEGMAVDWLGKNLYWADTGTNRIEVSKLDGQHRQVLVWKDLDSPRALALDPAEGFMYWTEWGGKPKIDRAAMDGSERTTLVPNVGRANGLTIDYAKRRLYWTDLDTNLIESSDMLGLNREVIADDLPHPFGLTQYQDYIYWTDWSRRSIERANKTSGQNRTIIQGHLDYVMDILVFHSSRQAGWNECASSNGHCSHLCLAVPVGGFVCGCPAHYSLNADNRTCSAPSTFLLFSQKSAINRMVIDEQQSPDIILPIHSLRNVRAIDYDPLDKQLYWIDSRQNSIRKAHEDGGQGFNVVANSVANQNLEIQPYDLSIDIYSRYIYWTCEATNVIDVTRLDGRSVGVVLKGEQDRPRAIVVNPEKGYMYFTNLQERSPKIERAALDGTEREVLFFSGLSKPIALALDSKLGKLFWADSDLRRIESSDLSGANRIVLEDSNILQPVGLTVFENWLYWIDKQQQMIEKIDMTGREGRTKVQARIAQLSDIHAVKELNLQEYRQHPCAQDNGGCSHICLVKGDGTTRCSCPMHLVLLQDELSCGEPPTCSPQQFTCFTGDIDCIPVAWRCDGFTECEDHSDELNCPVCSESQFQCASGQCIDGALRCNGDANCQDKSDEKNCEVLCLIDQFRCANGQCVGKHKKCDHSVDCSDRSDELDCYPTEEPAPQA
Protocol: (§1) Each purified DKK2 protein and 100 μl of 1% (w/v) skim milk/1×PBS were mixed to prepare 100 nM of DKK2 protein, and 100 nM of DKK2 protein was subjected to ¼ serial dilution. The diluted protein was applied to the prepared ELISA plate, and incubated at room temperature for about 2 hours. Thereafter, the plate was washed with 200 μl of PBST five times.
(§2) 2 μl of anti-Human Fc-HRP (Cat. No. 31413, Thermo, USA) antibody was mixed with 4 ml of PBS containing 1% (w/v) skim milk, and 200 μl of this mixture was added to each well of ELISA plate and incubated at room temperature for 1 hour. Thereafter, the secondary antibody of the ELISA plate was removed, and the plate was washed with 200 of PBS five times. 10 μl of H₂O₂ solution (Cat. No. H1009-100ML, Sigma, USA), 10 ml of PC buffer (5.1 g of citric acid monohydrate, 7.3 g of sodium phosphate/L (pH 5.0)), and one tablet of OPD (Cat. No. P8787-100TAB, Sigma, USA) were mixed to prepare a mixture, and a total volume of 100 μl of the mixture was added to each well. Incubation was performed at room temperature in the dark for 10 minutes, followed by color development. Thereafter, 50 μl of a stop buffer was added to each well to terminate the color development. Absorbance at 490 nm was measured using an ELISA reader, and a dissociation constant KD value (M) was calculated from the measured absorbance. […]

[2] = biological target: T2, human LRP6 (hLRP6) protein (Cat. No. 1505-LR-025, R&D, USA) (human, UniProt O75581 20-1368, limits assumed); assay: ELISA, 100 ng hLRP6 coated, DKK2 protein diluted serially from 100 nM, KD calculated from absorbance at 490 nm
T2 construct: Coated on the ELISA plate
T2 sequence (looked up): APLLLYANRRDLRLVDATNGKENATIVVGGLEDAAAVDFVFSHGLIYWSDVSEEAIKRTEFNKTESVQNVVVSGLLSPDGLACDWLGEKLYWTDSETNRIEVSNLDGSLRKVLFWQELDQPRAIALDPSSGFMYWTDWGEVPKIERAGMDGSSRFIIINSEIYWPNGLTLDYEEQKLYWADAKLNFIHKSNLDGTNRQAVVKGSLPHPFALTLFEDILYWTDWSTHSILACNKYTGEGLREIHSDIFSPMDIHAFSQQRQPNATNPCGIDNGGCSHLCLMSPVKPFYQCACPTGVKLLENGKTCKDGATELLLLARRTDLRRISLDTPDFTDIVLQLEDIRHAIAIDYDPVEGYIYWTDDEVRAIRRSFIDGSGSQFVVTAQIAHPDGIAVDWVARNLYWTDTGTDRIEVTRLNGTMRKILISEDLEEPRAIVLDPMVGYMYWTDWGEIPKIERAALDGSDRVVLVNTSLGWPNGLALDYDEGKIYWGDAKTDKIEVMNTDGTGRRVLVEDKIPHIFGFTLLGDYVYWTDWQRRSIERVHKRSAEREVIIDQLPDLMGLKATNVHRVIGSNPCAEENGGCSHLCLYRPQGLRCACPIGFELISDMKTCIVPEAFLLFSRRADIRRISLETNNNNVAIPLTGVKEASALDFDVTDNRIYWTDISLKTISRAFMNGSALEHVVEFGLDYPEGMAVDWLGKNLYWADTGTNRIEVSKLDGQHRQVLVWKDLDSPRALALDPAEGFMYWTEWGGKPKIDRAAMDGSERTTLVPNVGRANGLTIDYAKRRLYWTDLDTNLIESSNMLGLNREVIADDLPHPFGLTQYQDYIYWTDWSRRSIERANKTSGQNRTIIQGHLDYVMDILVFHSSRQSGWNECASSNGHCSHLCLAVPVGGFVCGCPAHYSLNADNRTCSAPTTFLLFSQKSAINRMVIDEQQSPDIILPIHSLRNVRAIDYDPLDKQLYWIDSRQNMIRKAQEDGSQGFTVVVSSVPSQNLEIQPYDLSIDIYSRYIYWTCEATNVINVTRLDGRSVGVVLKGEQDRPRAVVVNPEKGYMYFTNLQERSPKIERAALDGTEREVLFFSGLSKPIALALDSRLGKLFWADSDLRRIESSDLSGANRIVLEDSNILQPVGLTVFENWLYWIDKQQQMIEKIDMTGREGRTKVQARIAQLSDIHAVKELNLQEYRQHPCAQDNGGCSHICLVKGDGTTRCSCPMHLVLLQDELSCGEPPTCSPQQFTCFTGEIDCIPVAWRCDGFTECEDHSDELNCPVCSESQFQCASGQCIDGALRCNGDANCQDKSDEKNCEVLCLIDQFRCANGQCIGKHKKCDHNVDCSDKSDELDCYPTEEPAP
Protocol: as §1, §2

Kd [1]: 270 nM
Kd [2]: 90 nM
B1: wild-type DKK2 (Cat. No. 6628-DK-010, R&D, USA) (ligand)
chain: KLNSIKSSLGGETPGQAANRSAGMYQGLAFGGSKKGKNLGQAYPCSSDKECEVGRYCHSPHQGSSACMVCRRKKKRCHRDGMCCPSTRCNNGICIPVTESILTPHIPALDGTRHRDRNHGHYSNHDLGWQNLGRPHTKMSHIKGHEGDPCLRSSDCIEGFCCARHFWTKICKPVLHQGEVCTKQRKKGSHGLEIFQRCDCAKGLSCKVWKDATYSSKARLHVCQKI
notes: Bought protein; also called wild-type DKK2 protein
